Assay results from the supplement of paper PMC10724198.
± gives the standard deviation of the averaged measurements.

Test system: Saccharomyces cerevisiae
Experiment: protein stability index of tFT-peptide fusion (C-terminal peptide) (PSI (0-1 scale)); higher = more stable (slower turnover)
Settings: genetic background: wild type; temperature: 30 C
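Further: PSI is a weighted mean of sequencing reads over stability bins, variants kept only with over 10 reads, mCherry proximal and sfGFP distal, peptide attached via GGGS linker.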

Row | Sequence | protein stability index
1 | VYDASLPIRFFL | 0.697 ± 0.013
2 | PPPPRSPVCLPL | 0.792 ± 0.011
3 | GVRGLLAGGGVW | 0.709 ± 0.027
4 | PSPPRKHAPFRP | 0.737 ± 0.0085
5 | GVGSGEASDGCT | 0.626 ± 0.12
6 | AGEERWGGCLTG | 0.653 ± 0.021
7 | PVGDDDRTIPRL | 0.661 ± 0.043
8 | LKFLFTYLGFLS | 0.532 ± 0.03
9 | QLMAYFDITYSS | 0.723 ± 0.045
10 | KKKDRENIKNKI | 0.7151 ± 0.0068
11 | IIAGGGPARGCG | 0.635 ± 0.0071
12 | VLLSSWLIWLGG | 0.62 ± 0.01
13 | NLDFGYAERWQG | 0.768 ± 0.06
14 | LPLPPSFVHLPF | 0.732 ± 0.05
15 | CHILGSINKIKE | 0.7 ± 0.039
16 | LVSGCLCRKVLV | 0.531 ± 0.0017
17 | LGCLHRLLGVRL | 0.752 ± 0.048
18 | LPLPPLLPPPSP | 0.68 ± 0.073
19 | MALAVRVVNCGA | 0.591 ± 0.0087
20 | FLSFIALLPFTS | 0.6748 ± 0.0021
21 | RPAGGPSGGEGV | 0.689 ± 0.074
22 | RCGGIWWIVSSV | 0.669 ± 0.081
23 | GGSRRGLGAAGE | 0.671 ± 0.022
24 | NKIDAGTPEKHR | 0.626 ± 0.041
25 | GASLFSEVMARE | 0.688 ± 0.027
26 | PLLRPRLRPFPR | 0.704 ± 0.049

Row | Sequence | protein stability index
27 | KKKKKKKKTNKK | 0.762 ± 0.084
28 | KKKKKQKKKKKK | 0.643 ± 0.048
29 | RGVGGAPVWPFV | 0.765 ± 0.0093
30 | AGYGGILRSRGG | 0.698 ± 0.059
31 | PTPNPGHTRACL | 0.763 ± 0.23
32 | ICLLGTSSQRRD | 0.705 ± 0.0077
33 | TVVSFMFCPSLT | 0.667 ± 0.061
34 | SCMSVRKSSPRS | 0.691 ± 0.044
35 | KRIGLGEERQKR | 0.57 ± 0.078
36 | PPIPSLPPASFP | 0.69 ± 0.044
37 | PPWPPLLPRPSP | 0.666 ± 0.03
38 | PPPPALLPPPPA | 0.781 ± 0.27
39 | PTQFSSAADLSA | 0.637 ± 0.062
40 | RNYEKRSIIVCK | 0.497 ± 0.031
41 | PLSPPPPGPPAS | 0.6037 ± 0.0024
42 | RGGWWGYRGGVP | 0.718 ± 0.057
43 | ALPPPIPHPLFL | 0.701 ± 0.019
44 | PIFVCPFPGSLV | 0.683 ± 0.065
45 | RIPHRTRLARPT | 0.6716 ± 0.0064
46 | GRDSECCSGGGG | 0.683 ± 0.018
47 | GWSRCVFGGYRL | 0.7 ± 0.022
48 | RLKFCLSICLAP | 0.7321 ± 0.003
49 | YRIWFSSFLHPT | 0.741 ± 0.18
50 | KLTVPTKTIVHT | 0.651 ± 0.03
51 | RFCRPVCRFNLG | 0.647 ± 0.063
52 | MILNLLLFRSKK | 0.67 ± 0.05

Row | Sequence | protein stability index
53 | GLLRVGGFWSCL | 0.747 ± 0.019
54 | VGGRDDGFVWEG | 0.667 ± 0.031
55 | GGGGGGFRVVVG | 0.705 ± 0.03
56 | IMGRRGEDGVID | 0.682 ± 0.061
57 | GNEKSSRLRSTT | 0.644 ± 0.12
58 | LRSLLYDKVISL | 0.676 ± 0.055
59 | LFPGSHHLSRFF | 0.7587 ± 0.005
60 | ICVSVLIRHREL | 0.545 ± 0.019
61 | LLLWCRGGLLGS | 0.753 ± 0.024
62 | CLYLLFGLLHVG | 0.545 ± 0.02
63 | KKRKKKRTEPQP | 0.6421 ± 0.00099
64 | LACLPPLLLFSL | 0.539 ± 0.00097
65 | PPPSSPPPLPLP | 0.681 ± 0.017
66 | RPVVASRQASHS | 0.703 ± 0.021
67 | SWGLGWIARRRT | 0.684 ± 0.052
68 | LGLYNRFSMFGS | 0.645 ± 0.026
69 | PPPPPPPTPPPP | 0.673 ± 0.014
70 | DLGIFVSQQIEV | 0.6065 ± 0.0048
71 | HSLPPPCLHSTP | 0.683 ± 0.021
72 | SREYKRRTPSSK | 0.718 ± 0.03
73 | GGGGGGGGGGGG | 0.65 ± 0.04
74 | MPRSGRLSSRKE | 0.718 ± 0.023
75 | VFHLFSAVSLRL | 0.592 ± 0.0084
76 | HFPIPPSLFFRP | 0.631 ± 0.019
77 | TVNHKHALQFAT | 0.681 ± 0.091
78 | LFSFCQGCISFC | 0.715 ± 0.02

Row | Sequence | protein stability index
79 | VCGGRLVGWGGW | 0.729 ± 0.1
80 | GRLFLHPSLLAS | 0.596 ± 0.062
81 | QIEEDINLVTCN | 0.739 ± 0.049
82 | NHQKFILAACGT | 0.68 ± 0.029
83 | NELRREVLEEDL | 0.657 ± 0.0085
84 | SLFFFNFPLCAL | 0.559 ± 0.019
85 | IKGKYYEAKNKI | 0.714 ± 0.054
86 | DKNRNKKKKYER | 0.641 ± 0.038
87 | TLCTKCNVFSCC | 0.682 ± 0.062
88 | GGETGGRWHKKQ | 0.672 ± 0.069
89 | GNIREEYGSTGI | 0.7226 ± 0.0032
90 | LPLPPLRSSRPL | 0.665 ± 0.036
91 | LPSARSLVSPSP | 0.74 ± 0.0092
92 | LKKDVYANNLTD | 0.673 ± 0.004
93 | TEYCSRHDTATK | 0.728 ± 0.0096
94 | TASPPLHSFLGS | 0.679 ± 0.034
95 | PPPSPPSPHAPP | 0.643 ± 0.1
96 | VPVAGSFVGIRF | 0.6753 ± 0.004
97 | GGGGGGLVGQGD | 0.673 ± 0.017
98 | AKSCNSVHALRT | 0.668 ± 0.11
99 | VLSPLIGRICGH | 0.658 ± 0.01
100 | GRENKWGKGRRE | 0.67 ± 0.035
101 | ASVVEVSSLSLL | 0.629 ± 0.052
